Data reported in the domain aggregation screens of Martell et al. (2025).

Assay: soluble fraction after stress (log2 fold change); higher = more stays soluble; pooled small domains, quantitative proteomics
Details: stress: pH 4
Summary of the method: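 Custom libraries of small protein domains were pooled and exposed to pH 4. High-throughput quantitative proteomics then measured the log2 fold change in the amount of each domain still soluble, with higher values meaning more stayed soluble. This soluble-fraction fold change stands for aggregation propensity.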

| Sequence | soluble fraction (log2) |
| --- | --- |
| HMKVELSENEKIIYDLLSNQEVLLSEIKDKAELSNKAWDKSTKSLRKLGLVIVEKKDDNIYISKS | 0.368 |
| HMKVGEIIKAKREELKIPLVNFAKELDISQGYLSQIENGIKTNPNLDIILKIIHRLDIDLAMLL | -1.02 |
| HMKVIAEESYRILVDAIEKLPPQMKSIMQLALEGKSNPEIAETLNISGETVHSQKKIAYRKLRVYLKD | -0.144 |
| HMKVIETKYNTYVVKSGDTLYSVAKKYGISVTELKEINDLSNNTLSIGQKLLVPATTIIIDE | -0.525 |
| HMKVNMIIVMKPGARETDIQEVSNVLKSAGLGVHISKGTERTIIGVIGDKRLLNGIPLDLMHGVDKLVPIM | -0.0619 |
| HMKVNQFEVEGNQRYSTEEIAKASGVSKGDNLFLVNKTETARKLLDELAYVRSVNIKRKLPDTLVITVAE | 0.331 |
| HMKVPDVQYMNKDSAIEALTANELKYTIVEAENENVAAGVVISQSVERDSQVAPGTSVELVVSTG | -0.741 |
| HMKVQEMTANSFLTQWEAGNVKTLDILPEGIIKGELNDGTKFQLYYSSAAGLIDDVKKNPEKFANTTVSEK | -0.238 |
| HMKVQEVDYGTFLTMVDEGKVNQVDIENSKQITFNTKGDKNKVYITGQVNDPELVNRLYKAGVEFSQEIP | -0.674 |
| HMKVSNWYFNGAPSATTPPTSQWTTEKDKKAHIGDTFTSLDKSPSPNAGKSWRYTPSYTWEEIV | 0.0965 |
| HMKVSRTAVKLHHANAVEVAKKLQPLFVVGDVQIEPVKDAGIILLKGPASTLADLRESIVQMDHTA | -0.309 |
| HMKVTRWEDTGMKPAEAQEWQHYDFKPQEAMNWRDAGFVPLVARTWSDKGFDASEAQAWRDSVRNS | 0.123 |
| HMKVVEKHIVPQIQNPIRLQEYASSIFKTITTRSGIKKAIKKQLILLNRKPANTGDWIKEGQLLELLAEE | -0.569 |
| HMKVYIKDISDLSDKLKSLLIENDIDDSNKLFEVEDQVLLEIKGLGSKTIDKIKDIVTEYLKKNN | -0.38 |
| HMKVYPIMEAIANNNIELVKLLLEYHADLNIKDSNGNTPLALAKETGAKEVEDLLLQWMKQHT | -0.834 |
| HMKWGDTPTVEVPNLIGMKKKDLQTQLVDLKLDISGDGEKVIKQSPEAGAKVKEGSKIRIYFG | -0.0575 |

| Sequence | soluble fraction (log2) |
| --- | --- |
| HMKWYDSDKGFGFLSQEEGEDVYVRSSALPAGVEGLKAGQRVEFGIASGRRGPQALSL | -0.71 |
| HMKYKKYKLLKDLPTFKAGQLAYISKTGNLIAGTPENQKTTETGLIIMIYHETTLKKFPNILTEWFEEIE | -1.17 |
| HMKYNGDRPVFNDDVAWAKWMLENPAKITSHDKENLSSMLKKPEVVMLFEAEDLSVPDLRTLAKE | -0.349 |
| HMKYNYEAQQSDELSLVKGSRIHVLEKSSDGWWKGEIDNVVGWFPS | -0.102 |
| HMKYRLLGENLQTIRKARGMKQQELADQIGINMQSLSKIERGLNYPTFETLEKIMNALGITPNELLSG | -0.798 |
| HMKYRPGDVVTLRVARMGEMGAFLDAGTGNTNDDILLHKMQQTEEIKAGQDVKVYLYLDPNRRLTASMKL | -0.0269 |
| HMKYSNDEVERDLYVRGVIYQIGDLVENKLDGTSGEVVRRGPNYVQYTDGENFYKAFLSALQEQK | -1.04 |
| HMKYSYAELTKLQEQIAQDRNAPLTVPNALGIGLDERNNVIEITVNIADEAAAKAYYLQKYGDRISLKTTD | -0.243 |
| HMKYTEEIFNILSRGGFISANSVSSTVKRYYDALEEDFTEYYDYYKGIGFYLEAGNGYYLFTR | -0.064 |
| HMKYTVKSPLPGVIMSVLVKVGDTVKASDTVISLEAMKMENAIHAGRDGKVTSIDVNVGDSVLEGHTLVTI | -1.04 |
| HMLAAGTPLTVVTESSNLNIRQEPSTEAAVVGKAAKGEIVTLVEQTSGEWWKVSTKDGEEGYAYSRYL | -0.809 |
| HMLAAGTSLTVDTESSNLNIRQEPSTEGVILGKAAKGEVVTLVEQSSDEWWKIKTKDGEEGYAYARYLR | 0.0235 |
| HMLADRANMAPAALRQIMTAIDGGNVTPKQIESATGMAHATVARALRKMLDDGLIANDGKGRYTVLT | 0.238 |
| HMLADTNIHTIALKHRLANEVVEQVRPFLPETATIRAYDNMLILKSDRATLANVEQLIKKLDT | 0.228 |
| HMLALVREQIERNVSNPTDEDIRKIRHDVMEVITRAGADAATVDIAIEIDSQKNILRAIATGATEL | -1 |
